Data as given in paper PMC12945441 (Science (New York, N.Y.), 2022).

Target: prefusion SARS-CoV-2 Omicron BA.1 S ectodomain trimer (SARS-CoV-2 Omicron BA.1 (B.1.1.529), strain)
Assay: cryo-EM structure
Conditions: both partners purified

B1: S2X324 Fab fragment (Fab, V domains shown)
VH: QITLKESGPTLVKPTQTLTLTCTFSGFSVTTSGVGVGWIRQPPGKALEYLALIYWDDDKRYSTSLKSRLTITKDTSKNQVVLTMTNMDPVDTATYYCARHTIPSIFDYWGQGILVTVSS
VL: QPVLTQPASVSGSPGQSITISCTATSSDVGNYNYVSWYQHHPGKAPKLMIYEVSNRPSGVSNRFSGSKSGNTASLTISGLQAEDEADYYCSSYTSSSLLFGGGTKLTVL
stoichiometry N: 3 Fabs per S trimer
